# Test results from the supplement of paper PMC5998384.
# Experiments:
# HeLa Kyoto [1] = test: solubility in G1/S (NP-40 vs SDS abundance) (log2 ratio); higher = more soluble; settings: cell cycle stage: G1/S
# HeLa Kyoto [2] = test: melting temperature (median over replicates), in situ; higher = more thermally stable
# HeLa Kyoto [3] = test: solubility change mitosis vs G1/S (difference of NP-40 vs SDS log2 ratios) (log2 ratio difference); higher = more soluble in mitosis
# HeLa Kyoto [4] = test: thermal stability score vs G1/S (z-score of summed log2 fold changes over temperatures); higher = more thermally stable than in G1/S
# [5] = cell cycle stage: early G1 (4.5 h after nocodazole release)
# 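Throughout, for melting temperature (median over replicates), in situ: HeLa Kyoto cells synchronized by double thymidine or nocodazole block, proteins quantified by TMT10plex mass spectrometry, three independent biological replicates.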
# 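Throughout, for solubility change mitosis vs G1/S (difference of NP-40 vs SDS log2 ratios): synchronized HeLa Kyoto cells (double thymidine block for G1/S, nocodazole release for mitosis), protein amounts in NP-40 versus SDS lysates quantified by mass spectrometry, three biological replicates.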
# 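Throughout, for solubility in G1/S (NP-40 vs SDS abundance): HeLa Kyoto cells arrested at G1/S by double thymidine block, proteins quantified by TMT10plex mass spectrometry in mild NP-40 versus SDS extracts, three biological replicates.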
# 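Throughout, for thermal stability score vs G1/S (z-score of summed log2 fold changes over temperatures): synchronized HeLa Kyoto cells, proteins quantified by TMT10plex mass spectrometry, three biological replicates, mitosis taken 0.5 h after nocodazole release, G1/S directly after double thymidine block.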
# COL5A2, sequence (chain, as listed by the source): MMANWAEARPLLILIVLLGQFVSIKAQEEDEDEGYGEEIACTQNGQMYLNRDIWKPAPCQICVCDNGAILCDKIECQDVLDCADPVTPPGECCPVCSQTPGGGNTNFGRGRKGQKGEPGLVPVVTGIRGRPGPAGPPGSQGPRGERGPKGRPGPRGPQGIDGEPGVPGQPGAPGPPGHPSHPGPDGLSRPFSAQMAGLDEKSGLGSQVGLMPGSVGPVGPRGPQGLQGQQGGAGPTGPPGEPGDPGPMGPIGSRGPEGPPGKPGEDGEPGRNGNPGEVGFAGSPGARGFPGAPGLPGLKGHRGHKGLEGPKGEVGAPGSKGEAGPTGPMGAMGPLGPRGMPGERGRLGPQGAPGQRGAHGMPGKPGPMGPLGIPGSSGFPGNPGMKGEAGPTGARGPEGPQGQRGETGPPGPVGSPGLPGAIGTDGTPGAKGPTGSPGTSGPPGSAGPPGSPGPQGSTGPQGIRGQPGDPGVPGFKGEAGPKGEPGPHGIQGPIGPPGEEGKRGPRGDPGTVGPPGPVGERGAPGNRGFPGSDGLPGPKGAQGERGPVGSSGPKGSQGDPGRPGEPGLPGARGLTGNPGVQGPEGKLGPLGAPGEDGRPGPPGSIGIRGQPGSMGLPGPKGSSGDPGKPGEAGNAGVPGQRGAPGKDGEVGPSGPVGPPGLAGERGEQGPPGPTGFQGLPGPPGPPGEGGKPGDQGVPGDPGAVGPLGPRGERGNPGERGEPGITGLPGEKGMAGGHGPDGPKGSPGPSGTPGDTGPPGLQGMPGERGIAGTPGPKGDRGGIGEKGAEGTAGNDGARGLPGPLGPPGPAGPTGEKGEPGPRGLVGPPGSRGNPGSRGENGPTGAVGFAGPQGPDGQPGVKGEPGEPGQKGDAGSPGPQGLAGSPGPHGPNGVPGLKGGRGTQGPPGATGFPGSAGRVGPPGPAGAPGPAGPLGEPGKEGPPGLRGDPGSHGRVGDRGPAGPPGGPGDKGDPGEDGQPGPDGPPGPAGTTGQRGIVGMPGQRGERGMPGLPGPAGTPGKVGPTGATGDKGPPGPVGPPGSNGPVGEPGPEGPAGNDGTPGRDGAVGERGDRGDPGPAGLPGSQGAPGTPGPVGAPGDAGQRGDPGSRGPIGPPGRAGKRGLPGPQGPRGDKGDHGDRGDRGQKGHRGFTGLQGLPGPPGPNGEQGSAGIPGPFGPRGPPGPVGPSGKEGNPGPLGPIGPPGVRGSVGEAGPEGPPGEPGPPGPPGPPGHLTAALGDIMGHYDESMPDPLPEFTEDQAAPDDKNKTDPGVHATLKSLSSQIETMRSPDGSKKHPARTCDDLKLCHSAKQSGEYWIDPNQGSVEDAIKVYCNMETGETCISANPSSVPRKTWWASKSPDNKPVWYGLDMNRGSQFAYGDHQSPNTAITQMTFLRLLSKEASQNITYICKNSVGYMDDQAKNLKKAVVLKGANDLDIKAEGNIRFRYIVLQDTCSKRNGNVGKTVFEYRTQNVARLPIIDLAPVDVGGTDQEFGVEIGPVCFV
Substance,solubility in G1/S (log2) (HeLa Kyoto [1]),melting temperature (HeLa Kyoto [2]; cell cycle stage: G1/S) [°C],melting temperature (HeLa Kyoto [2]; cell cycle stage: mitosis) [°C],solubility change mitosis (log2) (HeLa Kyoto [3]),thermal stability score (HeLa Kyoto [4]; [5]),thermal stability score (HeLa Kyoto [4]; cell cycle stage: mitosis)
MADRDSGSEQGGAALGSGGSLGHPGSGSGSGGGGGGGGGGGGSGGGGGGAPGGLQHETQELASKRVDIQNKRFYLDVKQNAKGRFLKIAEVGAGGNKSRLTLSMSVAVEFRDYLGDFIEHYAQLGPSQPPDLAQAQDEPRRALKSEFLVRENRKYYMDLKENQRGRFLRIRQTVNRGPGLGSTQGQTIALPAQGLIEFRDALAKLIDDYGVEEEPAELPEGTSLTVDNKRFFFDVGSNKYGVFMRVSEVKPTYRNSITVPYKVWAKFGHTFCKYSEEMKKIQEKQREKRAACEQLHQQQQQQQEETAAATLLLQGEEEGEED [PURA],0.415,58,56.5,0.112,-2.25,-4.83
METESGNQEKVMEEESTEKKKEVEKKKRSRVKQVLADIAKQVDFWFGDANLHKDRFLREQIEKSRDGYVDISLLVSFNKMKKLTTDGKLIARALRSSAVVELDLEGTRIRRKKPLGERPKDEDERTVYVELLPKNVNHSWIERVFGKCGNVVYISIPHYKSTGDPKGFAFVEFETKEQAAKAIEFLNNPPEEAPRKPGIFPKTVKNKPIPALRVVEEKKKKKKKKGRMKKEDNIQAKEENMDTSNTSISKMKRSRPTSEGSDIESTEPQKQCSKKKKKRDRVEASSLPEVRTGKRKRSSSEDAESLAPRSKVKKIIQKDIIKEASEASKENRDIEISTEEEKDTGDLKDSSLLKTKRKHKKKHKERHKMGEEVIPLRVLSKSEWMDLKKEYLALQKASMASLKKTISQIKSESEMETDSGVPQNTGMKNEKTANREECRTQEKVNATGPQFVSGVIVKIISTEPLPGRKQVRDTLAAISEVLYVDLLEGDTECHARFKTPEDAQAVINAYTEINKKHCWKLEILSGDHEQRYWQKILVDRQAKLNQPREKKRGTEKLITKAEKIRLAKTQQASKHIRFSEYD [LARP7],-0.53,48.8,50.1,0.194,0.456,1.1
MATAAYEQLKLHITPEKFYVEACDDGADDVLTIDRVSTEVTLAVKKDVPPSAVTRPIFGILGTIHLVAGNYLIVITKKIKVGEFFSHVVWKATDFDVLSYKKTMLHLTDIQLQDNKTFLAMLNHVLNVDGFYFSTTYDLTHTLQRLSNTSPEFQEMSLLERADQRFVWNGHLLRELSAQPEVHRFALPVLHGFITMHSCSINGKYFDWILISRRSCFRAGVRYYVRGIDSEGHAANFVETEQIVHYNGSKASFVQTRGSIPVFWSQRPNLKYKPLPQISKVANHMDGFQRHFDSQVIIYGKQVIINLINQKGSEKPLEQTFATMVSSLGSGMMRYIAFDFHKECKNMRWDRLSILLDQVAEMQDELSYFLVDSAGQVVANQEGVFRSNCMDCLDRTNVIQSLLARRSLQAQLQRLGVLHVGQKLEEQDEFEKIYKNAWADNANACAKQYAGTGALKTDFTRTGKRTHLGLIMDGWNSMIRYYKNNFSDGFRQDSIDLFLGNYSVDELESHSPLSVPRDWKFLALPIIMVVAFSMCIICLLMAGDTWTETLAYVLFWGVASIGTFFIILYNGKDFVDAPRLVQKEKID [SACM1L],-0.172,50.7,50.7,-0.111,1.77,2.34
MYO5B,-0.588,49.7,53.1,0.158,-0.778,-0.163
MFCVTPPELETKMNITKGGLVLFSANSNSSCMELSKKIAERLGVEMGKVQVYQEPNRETRVQIQESVRGKDVFIIQTVSKDVNTTIMELLIMVYACKTSCAKSIIGVIPYFPYSKQCKMRKRGSIVSKLLASMMCKAGLTHLITMDLHQKEIQGFFNIPVDNLRASPFLLQYIQEEIPDYRNAVIVAKSPASAKRAQSFAERLRLGIAVIHGEAQDAESDLVDGRHSPPMVRSVAAIHPSLEIPMLIPKEKPPITVVGDVGGRIAIIVDDIIDDVDSFLAAAETLKERGAYKIFVMATHGLLSSDAPRRIEESAIDEVVVTNTIPHEVQKLQCPKIKTVDISMILSEAIRRIHNGESMSYLFRNIGLDD [PRPSAP2],0.117,57.5,57.4,-0.121,-0.303,-0.671
MAAPEGSGLGEDARLDQETAQWLRWDKNSLTLEAVKRLIAEGNKEELRKCFGARMEFGTAGLRAAMGPGISRMNDLTIIQTTQGFCRYLEKQFSDLKQKGIVISFDARAHPSSGGSSRRFARLAATTFISQGIPVYLFSDITPTPFVPFTVSHLKLCAGIMITASHNPKQDNGYKVYWDNGAQIISPHDKGISQAIEENLEPWPQAWDDSLIDSSPLLHNPSASINNDYFEDLKKYCFHRSVNRETKVKFVHTSVHGVGHSFVQSAFKAFDLVPPEAVPEQKDPDPEFPTVKYPNPEEGKGVLTLSFALADKTKARIVLANDPDADRLAVAEKQDSGEWRVFSGNELGALLGWWLFTSWKEKNQDRSALKDTYMLSSTVSSKILRAIALKEGFHFEETLTGFKWMGNRAKQLIDQGKTVLFAFEEAIGYMCCPFVLDKDGVSAAVISAELASFLATKNLSLSQQLKAIYVEYGYHITKASYFICHDQETIKKLFENLRNYDGKNNYPKACGKFEISAIRDLTTGYDDSQPDKKAVLPTSKSSQMITFTFANGGVATMRTSGTEPKIKYYAELCAPPGNSDPEQLKKELNELVSAIEEHFFQPQKYNLQPKAD [PGM2],0.169,59.1,58.5,-0.112,-0.0187,-1.07
LAMC1,-0.0818,53.5,53.9,-0.0329,2.27,3.77
COL5A2,-0.0207,54.6,57.9,0.0391,2.88,0.949
MEPGRRGAAALLALLCVACALRAGRAQYERYSFRSFPRDELMPLESAYRHALDKYSGEHWAESVGYLEISLRLHRLLRDSEAFCHRNCSAAPQPEPAAGLASYPELRLFGGLLRRAHCLKRCKQGLPAFRQSQPSREVLADFQRREPYKFLQFAYFKANNLPKAIAAAHTFLLKHPDDEMMKRNMAYYKSLPGAEDYIKDLETKSYESLFIRAVRAYNGENWRTSITDMELALPDFFKAFYECLAACEGSREIKDFKDFYLSIADHYVEVLECKIQCEENLTPVIGGYPVEKFVATMYHYLQFAYYKLNDLKNAAPCAVSYLLFDQNDKVMQQNLVYYQYHRDTWGLSDEHFQPRPEAVQFFNVTTLQKELYDFAKENIMDDDEGEVVEYVDDLLELEETS [CRTAP],0.35,53.3,54.8,-0.0925,3.61,4.97
MSGCRVFIGRLNPAAREKDVERFFKGYGRIRDIDLKRGFGFVEFEDPRDADDAVYELDGKELCSERVTIEHARARSRGGRGRGRYSDRFSSRRPRNDRRNAPPVRTENRLIVENLSSRVSWQDLKDFMRQAGEVTFADAHRPKLNEGVVEFASYGDLKNAIEKLSGKEINGRKIKLIEGSKRHSRSRSRSRSRTRSSSRSRSRSRSRSRKSYSRSRSRSRSRSRSKSRSVSRSPVPEKSQKRGSSSRSKSPASVDRQRSRSRSRSRSVDSGN [SRSF5],-0.33,51.3,51.5,0.302,1.65,-4.18
MASPGCLWLLAVALLPWTCASRALQHLDPPAPLPLVIWHGMGDSCCNPLSMGAIKKMVEKKIPGIYVLSLEIGKTLMEDVENSFFLNVNSQVTTVCQALAKDPKLQQGYNAMGFSQGGQFLRAVAQRCPSPPMINLISVGGQHQGVFGLPRCPGESSHICDFIRKTLNAGAYSKVVQERLVQAEYWHDPIKEDVYRNHSIFLADINQERGINESYKKNLMALKKFVMVKFLNDSIVDPVDSEWFGFYRSGQAKETIPLQETSLYTQDRLGLKEMDNAGQLVFLATEGDHLQLSEEWFYAHIIPFLG [PPT1],0.426,55.1,55.2,-0.105,0.0933,-1.67
MPPKKQAQAGGSKKAEQKKKEKIIEDKTFGLKNKKGAKQQKFIKAVTHQVKFGQQNPRQVAQSEAEKKLKKDDKKKELQELNELFKPVVAAQKISKGADPKSVVCAFFKQGQCTKGDKCKFSHDLTLERKCEKRSVYIDARDEELEKDTMDNWDEKKLEEVVNKKHGEAEKKKPKTQIVCKHFLEAIENNKYGWFWVCPGGGDICMYRHALPPGFVLKKDKKKEEKEDEISLEDLIERERSALGPNVTKITLESFLAWKKRKRQEKIDKLEQDMERRKADFKAGKALVISGREVFEFRPELVNDDDEEADDTRYTQGTGGDEVDDSVSVNDIDLSLYIPRDVDETGITVASLERFSTYTSDKDENKLSEASGGRAENGERSDLEEDNEREGTENGAIDAVPVDENLFTGEDLDELEEELNTLDLEE [ZC3H15],-0.131,54.1,53.6,-0.0422,0.581,-2.59
MSSNSFPYNEQSGGGEATELGQEATSTISPSGAFGLFSSDLKKNEDLKQMLESNKDSAKLDAMKRIVGMIAKGKNASELFPAVVKNVASKNIEIKKLVYVYLVRYAEEQQDLALLSISTFQRALKDPNQLIRASALRVLSSIRVPIIVPIMMLAIKEASADLSPYVRKNAAHAIQKLYSLDPEQKEMLIEVIEKLLKDKSTLVAGSVVMAFEEVCPDRIDLIHKNYRKLCNLLVDVEEWGQVVIIHMLTRYARTQFVSPWKEGDELEDNGKNFYESDDDQKEKTDKKKKPYTMDPDHRLLIRNTKPLLQSRNAAVVMAVAQLYWHISPKSEAGIISKSLVRLLRSNREVQYIVLQNIATMSIQRKGMFEPYLKSFYVRSTDPTMIKTLKLEILTNLANEANISTLLREFQTYVKSQDKQFAAATIQTIGRCATNILEVTDTCLNGLVCLLSNRDEIVVAESVVVIKKLLQMQPAQHGEIIKHMAKLLDSITVPVARASILWLIGENCERVPKIAPDVLRKMAKSFTSEDDLVKLQILNLGAKLYLTNSKQTKLLTQYILNLGKYDQNYDIRDRTRFIRQLIVPNVKSGALSKYAKKIFLAQKPAPLLESPFKDRDHFQLGTLSHTLNIKATGYLELSNWPEVAPDPSVRNVEVIELAKEWTPAGKAKQENSAKKFYSESEEEEDSSDSSSDSESESGSESGEQGESGEEGDSNEDSSEDSSSEQDSESGRESGLENKRTAKRNSKAKGKSDSEDGEKENEKSKTSDSSNDESSSIEDSSSDSESESEPESESESRRVTKEKEKKTKQDRTPLTKDVSLLDLDDFNPVSTPVALPTPALSPSLMADLEGLHLSTSSSVISVSTPAFVPTKTHVLLHRMSGKGLAAHYFFPRQPCIFGDKMVSIQITLNNTTDRKIENIHIGEKKLPIGMKMHVFNPIDSLEPEGSITVSMGIDFCDSTQTASFQLCTKDDCFNVNIQPPVGELLLPVAMSEKDFKKEQGVLTGMNETSAVIIAAPQNFTPSVIFQKVVNVANVGAVPSGQDNIHRFAAKTVHSGSLMLVTVELKEGSTAQLIINTEKTVIGSVLLRELKPVLSQG [AP3B1],-0.0793,50.6,50,-0.0973,-0.704,-0.939
NUP210,-0.0147,54.3,53.7,0.0421,6.11,9.9
MASTTSTKKMMEEATCSICLSLMTNPVSINCGHSYCHLCITDFFKNPSQKQLRQETFCCPQCRAPFHMDSLRPNKQLGSLIEALKETDQEMSCEEHGEQFHLFCEDEGQLICWRCERAPQHKGHTTALVEDVCQGYKEKLQKAVTKLKQLEDRCTEQKLSTAMRITKWKEKVQIQRQKIRSDFKNLQCFLHEEEKSYLWRLEKEEQQTLSRLRDYEAGLGLKSNELKSHILELEEKCQGSAQKLLQNVNDTLSRSWAVKLETSEAVSLELHTMCNVSKLYFDVKKMLRSHQVSVTLDPDTAHHELILSEDRRQVTRGYTQENQDTSSRRFTAFPCVLGCEGFTSGRRYFEVDVGEGTGWDLGVCMENVQRGTGMKQEPQSGFWTLRLCKKKGYVALTSPPTSLHLHEQPLLVGIFLDYEAGVVSFYNGNTGCHIFTFPKASFSDTLRPYFQVYQYSPLFLPPPGD [TRIM38],-0.661,,48.8,0.155,-0.0637,-0.487
UNC119B,0.268,50.6,50.3,-0.089,-0.908,-0.273
